The source of these data is paper PMC2225407.

The target of this series is MBP::FAX-1 (Caenorhabditis elegans) (UniProt G5EDJ0). Kind of series: EMSA. The settings on record: EMSA: 1.5 ug MBP::FAX-1, 4 ng 32P ds oligo, BSA, 30 min pre-incubation + 30 min on ice, 8% native PAGE, binding buffer salt and pH not given. Background: In EMSA bound probe runs differently from free probe, usually more slowly.
Sequence of UniProt G5EDJ0 (G5EDJ0 whole entry): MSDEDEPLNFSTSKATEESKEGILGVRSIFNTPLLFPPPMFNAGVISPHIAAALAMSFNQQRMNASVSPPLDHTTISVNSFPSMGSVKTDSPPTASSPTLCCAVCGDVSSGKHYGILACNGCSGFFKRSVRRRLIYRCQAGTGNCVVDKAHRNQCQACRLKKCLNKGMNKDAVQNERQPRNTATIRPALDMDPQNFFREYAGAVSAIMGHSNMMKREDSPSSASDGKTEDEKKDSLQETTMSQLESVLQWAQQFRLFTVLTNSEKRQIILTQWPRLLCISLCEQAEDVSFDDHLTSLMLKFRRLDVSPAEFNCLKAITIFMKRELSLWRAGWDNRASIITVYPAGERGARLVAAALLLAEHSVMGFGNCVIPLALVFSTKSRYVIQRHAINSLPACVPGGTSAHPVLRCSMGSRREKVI

Consider “AATTACCCTTTTAAAAGTCAAAATTTAACTTCCAA / TCGATTGGAAGTTAAATTTTGACTTTTAAAAGGGT [MON1]”, for which the binding signal (% probe bound) came out at 2.8.

As for “AATTACCCTTTTAAAATTCAAAATTCAACTTCCAA / TCGATTGGAAGTTGAATTTTGAATTTTAAAAGGGT [DRNC]”, the binding signal (% probe bound) amounted to 0.4.

Consider “AATTACCCTTTTAAAATTCAAAAGTCAACTTCCAA / TCGATTGGAAGTTGACTTTTGAATTTTAAAAGGGT [HRWS]”, for which the binding signal (% probe bound) worked out at 10.5.

Take “AATTACCCTTTTAAATGTCAAATGTCAACTTCCAA / TCGATTGGAAGTTGACATTTGACATTTAAAAGGGT [DR1T]”: the binding signal (% probe bound) was 29.8.

With “AATTACCCTTTTAAAATTTAAAAGTCAACTTCCAA / TCGATTGGAAGTTGACTTTTAAATTTTAAAAGGGT [MON2]”, the binding signal (% probe bound) was 4.5.

With “AATTACCCTTTTAAAAGTCAAAAGTCAACTTCCAA / TCGATTGGAAGTTGACTTTTGACTTTTAAAAGGGT [DR1A]”, the binding signal (% probe bound) worked out at 53.3.

For the sequence “AATTACCCTTTTAAAAGTCAAAATTCAACTTCCAA / TCGATTGGAAGTTGAATTTTGACTTTTAAAAGGGT [HRSW]”, the binding signal (% probe bound) came to 11.7.

Regarding “AATTACCCTTTTAAAGGTCAAAGGTCAACTTCCAA / TCGATTGGAAGTTGACCTTTGACCTTTAAAAGGGT [DR1G]”, where the note is “supershift with anti-FAX-1 shown”, the binding signal (% probe bound) turned out to be 42.1.

For “AATTACCCTTTTAAACGTCAAACGTCAACTTCCAA / TCGATTGGAAGTTGACGTTTGACGTTTAAAAGGGT [DR1C]”, the binding signal (% probe bound) stood at 26.1.
